Type in all cases: binding, human
Test [1] has as its system antibodies present in IFA sero-positive sera from patients infected with Bartonella henselae (IgG). As to the kind of experiment: IgG ELISA with synthetic polypeptides of 17-kDa protein as coating antigen. The settings on record: for antibody binding activity in ELISA: IFA sero-positive sera, mostly relative to peptide 3C. The source says:
A panel of 47 human sera, including 27 IFA positive and 20 WA negative sera, was used. ROC analysis was used to analysis the binding activity via OD450nm (FIGS. 19 and 21). AUCs for peptide 3C, 3B, 3D, and 3E were 0.9, 0.5, 0.5, and 0.8 respectively (FIGS. 19 and 21). […] Thus, the antibody recognition site seems to be present on peptide 3C (but not peptides 3B and 3D).
We adopted an IgG ELISA assay and evaluated the binding activity of the modified peptides towards IgG. The ELISA procedure involves: (i) coating 96-well micro-titer plates with modified peptides at varying concentrations (e.g., 0.2-5 μg/ml) at 4° C. overnight; (ii) adding 5% skim milk to block non-specific binding; (iii) adding patients' sera to allow formation of antibody-antigen complex; (iv) detecting the antibody-antigen complex. IFA sero-positive sera served as positive controls and IFA sero-negative sera served as negative controls. Detection of antibody-antigen complex was performed with the use of horseradish peroxidase.
A panel of 47 human sera was used in an ELISA assay to evaluate the sensitivity and specificity for synthetic polypeptides of 17-kDa protein. This panel contains 27 IFA positive sera and 20 IFA negative sera. Synthetic polypeptides used include amino acid substitution (Peptide 3C-CS3), addition (Peptide 3C-Ext2), and deletion (Peptide 3C-Del). Antibody binding was reflected by OD450nm, which was analyzed by Interactive dot diagram in statistic software MedCalc.
Background: In an ELISA, binding on a coated surface is turned into a signal by an enzyme label.

For test [2], the system named is antibodies against Bartonella henselae in IFA sero-positive patient sera (IgG). As to the kind of experiment: IgG ELISA with recombinant 17-kDa protein or Fragment 3 as coating antigen. The settings on record: for area under ROC curve (AUC): IgG ELISA, panel of 47 serum samples (27 IFA positive, 20 IFA negative), MedCalc ROC; for reaction with IFA negative serum samples: panel of 12 IFA positive and 6 IFA negative serum samples. As to the method:
In the ELISA assay, purified Fragment 3 protein was diluted in coating buffer to a final concentration of 250 ng/ml. Antigen was adhered to 96-well plate by applying 100 μl this solution per well and incubated at 4° C. for 18 hours. Uncoated antigen was removed by washing the plate three times with PBST wash buffer. After washing, post-coating was done with 300 μl blocking reagent General Blocker BB1 in each well for 1 hour at 22° C. Primary polyclonal antibody from 100 μl serum in 1:100 sample dilution buffer each well was allowed to react with coated antigen for 1 hour at 22° C. After five wash steps with PBST wash buffer, each well was incubated with […] peroxidase conjugated goat anti-human IgG (KPL, 1:20,000 from 1 mg/ml stock in sample dilute buffer) for 30 minutes at 22° C. The excess amount of secondary antibody was also removed by five wash steps with PBST wash buffer. The reaction were visualized by adding 100 μl substrate 3,3′5,5′-Tetramethylbenzidine solution and incubated at 22° C. for 15 minutes. The reaction was terminated by adding 100 μl 0.5 M H2SO4 per well before taking OD450nm measurement. Receiver operating characteristic curve (ROC) analysis was calculated with associated 95% confidence interval using a binomial distribution with the MedCalc program.
In this series of studies, a panel containing 12 IFA positive serum samples and 6 IFA negative serum samples was evaluated by ELISA using the respective antigen as the coating antigen. FIG. 15 presents the results of this ELISA analysis. […] Neither antigen bound antibody in sample #3508.
To further characterize the comparative abilities of recombinant Fragment 3 and the full length protein to bind antibodies to Bartonella henselae, a broader panel of 47 serum samples (27 IFA positive serum samples and 20 IFA negative serum samples) was analyzed by ELISA. The raw data was analyzed with ROC curve comparison in statistic software MedCalc.
A panel of 47 human sera was used in an IgG ELISA to evaluate the sensitivity and specificity for Fragment 3 mutants. The raw data was analyzed by interactive dot diagram assay (FIGS. 31 and 32).
Purified protein was diluted in coating buffer to a final concentration 250 ng/ml. Antigen was adhered to 96-well plate by applying 100 μl above prepared solution per well and incubate at 4° C. for 18 hours. We removed uncoated antigen by washing plate three times with PBST wash buffer. After washing, post-coating was done with 300 μl blocking reagent General Blocker BB1 each well for 1 hour at 22° C. Then primary polyclonal antibody from 100 μl serum in 1:100 sample dilution buffer each well was allowed to react with coated antigen for 1 hour at 22° C. After five times washing with PBST wash buffer, we incubated each well with 100 μl peroxidase conjugated goat anti-human IgG (KPL, 1:20,000 from 1 mg/ml stock in sample dilute buffer) for 30 minutes at 22° C. The excess amount of secondary antibody was also removed by five times washing with PBST wash buffer. The reaction were visualized by adding 100 μl substrate 3,3′5,5′-Tetramethylbenzidine Solution and incubated at 22° C. for 15 minutes. In the end, we terminated reaction with 100 μl 0.5 M H2SO4 per well before taking OD450nm measurement. Receiver operating characteristic curve (ROC) analysis was calculated with associated 95% confidence interval using a binomial distribution with MedCalc program.

Test [3] relates to IgM in IFA-positive patient sera. As to the kind of experiment: IgM Capture ELISA with biotinylated recombinant 17-kDa full-length protein. The arrangement: AUC (ROC analysis of the calibrated slopes): unit not given beside the values. Particulars: IFA-positive (n=13) and IFA-negative (n=34) patient samples. On the procedure:
For the IgM Capture assay, purified recombinant 17-kDa full-length protein (1 mg/ml) was biotinylated using the Sulfo-NHS Biotin kit (Pierce, Rockford Ill.). MaxiSorp 96 well plates (Nunc, Rochester N.Y.) were coated with anti-human IgM (KPL, Gaithersburg, Md.) at a concentration of 1 μg/ml in coating buffer (0.015 M Na2CO3, 0.035 M NaHCO3 [pH 9.6]) and incubated overnight at 4° C. The plates were washed with PBS-Tween 20 and blocked with 1% bovine serum albumin (BSA) at room temperature. IgM positive and negative patient sera were used. The sera were diluted 1:100 in 1% BSA with 0.05% Tween 20, prior to being run in duplicate, and reacted with the plates for 1 hr at room temperature.
Biotinylated recombinant 17-kDa protein was added to the plates at 1 μg/ml in dilution buffer and incubated at room temperature for 1 h with shaking. Streptavidin-HRP (Southern Biotech, Birmingham Ala.) was used to detect the plates followed by development with 3,3′,5,5′-Tetramethylbenzidine (TMB) (Moss, Pasadena, Md.) for 30 minutes. The reaction was stopped with 2M HCl and the absorbance at 450 nm was recorded after a period of 5-30 minutes.
Receiver operating characteristic (ROC) curve analysis was used to evaluate the performance of the IgM Capture method. ROC plots can be used to compare all tests, even when tests have quite different cutoff values. The study of area under the curve (AUC), which evaluates the probabilities of (1-Specificity) and Sensitivity, is an important statistical feature of such curves (i.e., for samples with Sensitivity=Specificity=100%, AUC would be 1.0).

Where [4] appears, read: ELISA, panel of 47 human sera (27 IFA positive, 20 IFA negative), ROC analysis of OD450nm.

The text below walks through data of US8283439B2, “Recombinant fragments and synthetic peptides of 17-kDa polypeptide useful in detecting Bartonella henselae” (Medical Diagnostic Laboratories L.L.C., priority 2008, dated 2012).

“Also recorded” adds a separate entry of the source.

Regarding “LKQDEQKLEKLEKSDVRL (listed as Bartonella henselae) [Peptide 3C-RD1, peptide 3C with substitution of the first 8 AA at N-terminus]”, the “antibody binding activity in ELISA” value in test [1] was “same binding activity as compared to that of peptide 3C”.
Regarding “QAKDTKTKEELREEQTQK (listed as Bartonella henselae) [Peptide 3B, synthetic polypeptide, aa 111-128 of 17-kDa protein]”, in test [1] (setting [4]), the AUC was 0.5, the sensitivity is 33.3% and the specificity stood at 90.0%.
As for “QKKHEDLQKQLKEKLEKSDVRL (listed as Bartonella henselae) [Peptide 3C-Ext1, peptide 3C with addition of 4 AA at N-terminus]”, in test [1], the “antibody binding activity in ELISA” value was “same binding activity as compared to that of peptide 3C”.

B1: 17-kDa Fragment 3: His-tagged recombinant fragment of 17-kDa protein, aa 77-148, glutamine instead of arginine at position 147 (protein, listed as Bartonella henselae)
chain: KTKPEQLQALQIELTLLQAQLQADTLKIQSLAMIQAKDTKTKEELREEQTQKKHEDLQKQLKEKLEKSDVQL
modifications: His tag
For B1, in test [2], the “area under ROC curve (AUC)” value is 0.897 and the “reaction with IFA negative serum samples” value is given as “Neither antigen reacted with any of the IFA negative serum samples”. The “ability to bind antibodies in IgG ELISA” value in test [2] (coating antigen, IFA positive vs IFA negative sera) is on record as “binds to antibodies against Bartonella henselae; also recorded: identical, if not better, ability to bind antibodies when compared with the full-length 17-kDa protein; also recorded: better sensitivity in detecting positive serum than the full length antigen”.

B2: 17-kDa Full Length: recombinant full-length 17-kDa (virB5) protein of Bartonella henselae strain Houston-1, aa 1-148; biotinylated in the IgM assay (protein, listed as Bartonella henselae)
chain: MKKYSLVTLLSLFCISHAKAQTATLTDEYYKKALENTQKLDVAKSQTAESIYESATQTANKIKDINNQLANLKADTKTKPEQLQALQIELTLLQAQLQADTLKIQSLAMIQAKDTKTKEELREEQTQKKHEDLQKQLKEKLEKSDVQL
modifications: biotinylated in IgM assay
notes: recombinant full-length 17-kDa (virB5) protein of Bartonella henselae strain Houston-1, aa 1-148; biotinylated in the IgM assay
With B2, in test [2], the “area under ROC curve (AUC)” value was 0.853 and the “reaction with IFA negative serum samples” value is on record as “Neither antigen reacted with any of the IFA negative serum samples”. For the same molecule, in test [3], the “AUC (ROC analysis of the calibrated slopes)” value is given as 0.998, the sensitivity is 100% and the specificity stood at 97.1%.
